What was measured:
[1] = target: T1, DVEPGQPLYDDDDK-[Arg34]GLP-1(9-37)
T1 chain: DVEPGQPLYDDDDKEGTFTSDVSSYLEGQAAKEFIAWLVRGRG

[2] = target: T2, DVKEGQPLYDEGDR-[Arg34]GLP-1(9-37)
T2 chain: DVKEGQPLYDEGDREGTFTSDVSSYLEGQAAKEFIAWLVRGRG

[3] = target: T3, DVKPEQPLYDDDDK-[Arg34]GLP-1(9-37)
T3 chain: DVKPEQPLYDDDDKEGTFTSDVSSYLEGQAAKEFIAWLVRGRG

[4] = target: T4, DVKPEQPLYDEGDR-[Arg34]GLP-1(9-37)
T4 chain: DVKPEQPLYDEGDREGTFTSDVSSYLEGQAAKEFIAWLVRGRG

[5] = target: T5, DVKPGQPEYDEGDR-[Arg34]GLP-1(9-37)
T5 chain: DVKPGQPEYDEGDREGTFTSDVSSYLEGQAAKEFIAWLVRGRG

[6] = target: T6, DVKPGQPLYDEGDR-[Arg34]GLP-1(9-37)
T6 chain: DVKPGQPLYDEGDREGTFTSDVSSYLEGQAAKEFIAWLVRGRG

[7] = target: T7, Lys(Dnp)-AEGDR-HAEGT-Lys(Abz)amide
T7 chain: XAEGDRHAEGTX

[8] = target: T8, Lys(Dnp)-DDGDR-HGEGT-Lys(Abz)amide
T8 chain: KDDGDRHGEGTK

[9] = target: T9, Lys(Dnp)-DEGDR-HGEGT-Lys(Abz)amide
T9 chain: KDEGDRHGEGTK

[10] = target: T10, Lys(Dnp)-DEGDR-QGTFT-Lys(Abz)amide
T10 chain: KDEGDRQGTFTK

[11] = target: T11, Lys(Dnp)-DGGDR-EGTFT-Lys(Abz)amide
T11 chain: KDGGDREGTFTK

[12] = target: T12, Lys(Dnp)-DLGDR-QGTFT-Lys(Abz)amide
T12 chain: KDLGDRQGTFTK

[13] = target: T13, Lys(Dnp)-DSGDR-HSQGT-Lys(Abz)amide
T13 chain: KDSGDRHSQGTK

[14] = target: T14, Lys(Dnp)-DTGDR-HAEGT-Lys(Abz)amide
T14 chain: KDTGDRHAEGTK

[15] = target: T15, Lys(Dnp)-EAGDR-HAEGT-Lys(Abz)amide
T15 chain: KEAGDRHAEGTK

[16] = target: T16, Lys(Dnp)-EAGDR-HGEGT-Lys(Abz)amide
T16 chain: KEAGDRHGEGTK

[17] = target: T17, Lys(Dnp)-EDGDR-HGEGT-Lys(Abz)amide
T17 chain: KEDGDRHGEGTK

[18] = target: T18, Lys(Dnp)-EEGDR-HGEGT-Lys(Abz)amide
T18 chain: KEEGDRHGEGTK

[19] = target: T19, Lys(Dnp)-EFGDR-HAEGT-Lys(Abz)amide
T19 chain: KEFGDRHAEGTK

[20] = target: T20, Lys(Dnp)-EGGDR-EGTFT-Lys(Abz)amide
T20 chain: KEGGDREGTFTK

[21] = target: T21, Lys(Dnp)-EGGDR-HGEGT-Lys(Abz)amide
T21 chain: KEGGDRHGEGTK

[22] = target: T22, Lys(Dnp)-EHGDR-HAEGT-Lys(Abz)amide
T22 chain: KEHGDRHAEGTK

[23] = target: T23, Lys(Dnp)-EQGDR-HAEGT-Lys(Abz)amide
T23 chain: KEQGDRHAEGTK

[24] = target: T24, Lys(Dnp)-EQGDR-HGEGT-Lys(Abz)amide
T24 chain: KEQGDRHGEGTK

[25] = target: T25, Lys(Dnp)-ETGDR-HAEGT-Lys(Abz)amide
T25 chain: KETGDRHAEGTK

[26] = target: T26, Lys(Dnp)-EYGDR-HGEGT-Lys(Abz)amide
T26 chain: KEYGDRHGEGTK

[27] = target: T27, Lys(Dnp)-FDEGDR-HAEGT-Lys(Abz)amide
T27 chain: KFDEGDRHAEGTK

[28] = target: T28, Lys(Dnp)-FEGDR-HAEGT-Lys(Abz)amide
T28 chain: KFEGDRHAEGTK

[29] = target: T29, Lys(Dnp)-GDEGDR-HAEGT-Lys(Abz)amide
T29 chain: KGDEGDRHAEGTK

[30] = target: T30, Lys(Dnp)-HDEGDR-HAEGT-Lys(Abz)amide
T30 chain: KHDEGDRHAEGTK

[31] = target: T31, Lys(Dnp)-IYGDRHAEGT-Lys(Abz)amide
T31 chain: KIYGDRHAEGTK

[32] = target: T32, Lys(Dnp)-KDEGDR-HAEGT-Lys(Abz)amide
T32 chain: KKDEGDRHAEGTK

[33] = target: T33, Lys(Dnp)-MEGDR-HAEGT-Lys(Abz)amide
T33 chain: KMEGDRHAEGTK

[34] = target: T34, Lys(Dnp)-NEGDR-HAEGT-Lys(Abz)amide
T34 chain: KNEGDRHAEGTK

[35] = target: T35, Lys(Dnp)-NYTDRHAEGT-Lys(Abz)amide
T35 chain: KNYTDRHAEGTK

[36] = target: T36, Lys(Dnp)-PDEGDR-HAEGT-Lys(Abz)amide
T36 chain: KPDEGDRHAEGTK

[37] = target: T37, Lys(Dnp)-QEGDR-HGEGT-Lys(Abz)amide
T37 chain: KQEGDRHGEGTK

[38] = target: T38, Lys(Dnp)-RDEGDR-HAEGT-Lys(Abz)amide
T38 chain: KRDEGDRHAEGTK

[39] = target: T39, Lys(Dnp)-VDEGDR-HAEGT-Lys(Abz)amide
T39 chain: KVDEGDRHAEGTK

[40] = target: T40, Lys(Dnp)-YDEGDR-HAEGT-Lys(Abz)amide
T40 chain: KYDEGDRHAEGTK

[41] = target: T41, Lys(Dnp)-YEGDR-HAEGT-Lys(Abz)amide
T41 chain: KYEGDRHAEGTK

B1: bovine Enterokinase light chain variant (C112A, L134K, I135K) (protein)
chain: IVGGSDSREGAWPWVVALYFDDQQVCGASLVSRDWLVSAAHCVYGRNMEPSKWKAVLGLHMASNLTSPQIETRLIDQIVINPHYNKRRKNNDIAMMHLEMKVNYTDYIQPIALPEENQVFPPGRICSIAGWGAKKYQGSTADVLQEADVPLLSNEKCQQQMPEYNITENMVCAGYEAGGVDSCQGDSGGPLMCQENNRWLLAGVTSFGYQCALPNRPGVYARVPRFTEWIQSFLH
[1]
  Activity (%): 203%
[2]
  Activity (%): 913%
[3]
  Activity (%): 167%
[4]
  Activity (%): 803%
[5]
  Activity (%): 625%
[6]
  Activity (%): 707%
[7]
  Activity (%): 382%
[8]
  Activity (%): 439%
[9]
  Activity (%): 736%
[10]
  Activity (%): 411%
[11]
  Activity (%): 322%
[12]
  Activity (%): 222%
[13]
  Activity (%): 200%
[14]
  Activity (%): 434%
[15]
  Activity (%): 582%
[16]
  Activity (%): 275%
[17]
  Activity (%): 462%
[18]
  Activity (%): 641%
[19]
  Activity (%): 486%
[20]
  Activity (%): 380%
[21]
  Activity (%): 279%
[22]
  Activity (%): 549%
[23]
  Activity (%): 808%
[24]
  Activity (%): 432%
[25]
  Activity (%): 475%
[26]
  Activity (%): 338%
[27]
  Activity (%): 200%
[28]
  Activity (%): 397%
[29]
  Activity (%): 267%
[30]
  Activity (%): 204%
[31]
  Activity (%): 117%
[32]
  Activity (%): 175%
[33]
  Activity (%): 419%
[34]
  Activity (%): 457%
[35]
  Activity (%): 59%
[36]
  Activity (%): 194%
[37]
  Activity (%): 275%
[38]
  Activity (%): 222%
[39]
  Activity (%): 184%
[40]
  Activity (%): 153%
[41]
  Activity (%): 377%

From US20160319321
